Experimental data taken from PMC9549148, “Validation of the binding stoichiometry between HCN channels and their neuronal regulator TRIP8b by single molecule measurements” (Frontiers in Physiology, 2022).

Tests used:
[1] = target: rabbit HCN4 carrying an internal deletion (from residues 783 to 1064) (rabbit) (UniProt Q9TV66); assay: mass photometry; Refeyn OneMP; SEC peak fractions of the co-purified HCN4 - EGFP-TRIP8b complex in LMNG-CHS, 1 μL at 200 nM added to 10 μL buffer at room temperature, 60 s recording; no cAMP
[2] = target: the molecule itself; assay: mass photometry; Refeyn OneMP; the same co-purified HCN4 - EGFP-TRIP8b complex with 2 mM cAMP added prior to mass photometry

Molecule | stoichiometry N (TRIP8b per tetrameric HCN4) [1] | stoichiometry N [2]
EGFP-tagged TRIP8b (1a), full-length mouse TRIP8b (splice variant 1a4) (from UniProt Q8C437 1-567) (natural protein) | 4 | –
rabbit HCN4 carrying an internal deletion (from residues 783 to 1064) (natural protein, UniProt Q9TV66 1-1175, looked up, the extreme C-terminal SNL tripeptide is preserved; expected MW of the monomer 98.4 kDa; Cloned into the pCI vector; no tag is stated for HCN4; also called HCN4ΔC; modified HCN4 channels; source: HEK293-F, transiently co-transfected with TRIP8b; solubilised in detergent (LMNG-CHS), purified in complex with TRIP8b (Ni2+-NTA, Superose 6 SEC)) MDKLPPSMRKRLYSLPQQVGAKAWIMDEEEDAEEEGAGGRQDPRRRSIRLRPLPSPSPSPSAAAAAAGGAESRGAALGGAADGEGPARGAAKSSTNGDCRRFRGSLASLGSRGGGGGGGSTGGGSHGHLHDSAEERRLIAEGDASPGEDRTPPGLAAEPERPGAPAPPAASPPQVPSSCGEQRPADAAVKVEGGAAAGDQILPEAEARLGQAGFMQRQFGAMLQPGVNKFSLRMFGSQKAVEREQERVKSAGFWIIHPYSDFRFYWDLTMLLLMVGNLIIIPVGITFFKDENTTPWIVFNVVSDTFFLIDLVLNFRTGIVVEDNTDIILDPRRIKMKYLKSWFVVDFVSSIPVDYIFLIVETRIDSEVYKTARALRIVRFTKILSLLRLLRLSRLIRYIHQWEEIFHMTYDLASAVVRIVNLIGMMLLLCHWDGCLQFLVPMLQDFPDDCWVSLNNMVNNSWGKQYSYALFKAMSHMLCIGYGRQAPMGMSDVWLTMLSMIVGATCYAMFIGHATALIQSLDSSRRQYQEKYKQVEQYMSFHKLPPDTRQRIHDYYEHRYQGKMFDEESILGELSEPLREEIINFNCRKLVASMPLFANADPNFVTSMLTKLRFEVFQPGDYIIREGTIGKKMYFIQHGVVSVLTKGNKETKLADGSYFGEICLLTRGRRTASVRADTYCRLYSLSVDNFNEVLEEYPMMRRAFETVALDRLDRIGKKNSILLHKVQHDLSSGVSNYQENAIVQRIVQHDREMAHCARRAQATTPVAPAIWTPLIQAPLQAAQDLKLISASQPALPQDGAQTLRRASPHSSSGESVAALPPFPRAPGRPPGAGPGQHVTLTLPRKASSGSLPPPLSLFGPRAAPAGGPRLTAAPQREPGAKSEPVRSKLPSNL | – | 4
